In US8076085:

Legend:
Test in all cases: inhibition ELISA: serum preincubated with soluble peptide, then preS1 (94-117) coated plate
[1] = target: IgG anti-preS1 (94-117) in serum of one HBeAg+ patient with chronic HBV-infection who later spontaneously seroconverted to anti-HBe (FIG. 5a)
[2] = target: IgG anti-preS1 (94-117) in serum of HBeAg+ patient with acute resolving HB-infection (FIG. 5b)
[3] = target: IgG anti-preS1 (94-117) in serum of HBeAg+ patient with acute resolving HB-infection (FIG. 6a)
[4] = target: IgG anti-preS1 (94-117) in serum of HBeAg+ patient with acute resolving HB-infection (FIG. 6b)
[5] = target: IgG anti-preS1 (94-117) in serum from a HBeAg+ chronic patient (FIG. 7)

Measured: percent inhibition

PASTNRQSGRQPTPISPPLRDSHP [preS1#94-117 peptide (HBV subtypes adw, adw2 and two of three adr subtypes)]
100%: all assays above
